Our source for the percent of loaded protein sedimenting as tetramer and stoichiometry N values is publication PMC5304152.

“And” between values parts separate entries of the source, which are not always exact repeats. Equal values may be shown once.

As a reminder, the stoichiometry N is a count of units in the complex or per binding partner.

This test concerns the target barfin plaice type I antifreeze protein, 40-residue major isoform (bpAFP) (barfin plaice (Liposetta pinnifasciata)). Nature of the test: AUC; sedimentation velocity, 40,000 rpm, 4 °C, 2.5 mg bpAFP in 0.5 mL (5 mg/mL) 10 mM sodium phosphate pH 7.9, absorbance optics; monomer to tetramer (and octamer).

As for “barfin plaice type I antifreeze protein, 40-residue major isoform (bpAFP) (peptide)”, the percent of loaded protein sedimenting as tetramer amounted to 2.7%; the stoichiometry N was 4 and 8.
